From the supplement of paper PMC10724198 come the findings set out here.

In the data set the test system is Saccharomyces cerevisiae. Nature of the data set: protein stability index of tFT-peptide fusion (C-terminal peptide) (PSI (0-1 scale)); higher = more stable (slower turnover). Conditions: temperature: 30 C. The method, then:
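MPS profiling in S. cerevisiae of the yeast C-terminome library: the last 12 aa of each annotated ORF are fused to the C-terminus of a sfGFP-mCherry timer, after a GGGS linker. Cells are FACS-sorted into 8 mCherry/sfGFP bins and deep-sequenced. PSI runs from 0 (unstable) to 1 (stable); wild type and das1Δ backgrounds, two technical replicates each.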

[1] abbreviates: genetic background: das1 deletion.

± gives the standard deviation of the averaged measurements.

With QIPPEVQKWYYV [PPA2 C-terminal 12 aa], the protein stability index reads like this: under setting [1], 0.71952 ± 0.00036; (genetic background: wild type) 0.593 ± 0.02.
In the case of QLEKEGEDGLDS [IES4 C-terminal 12 aa], the protein stability index is 0.6881 ± 0.005 under setting [1] and 0.666 ± 0.043 (genetic background: wild type).
Turning to QLITLLSKHLRT [HMS2 C-terminal 12 aa], the protein stability index by setting is: under setting [1], 0.693 ± 0.017; (genetic background: wild type) 0.676 ± 0.042.
For QLQLIMFGKKFK [AAC1 C-terminal 12 aa], in that order: 0.698 ± 0.0099 and 0.717 ± 0.036.
In the same order, the values of QPPAAAEGEAPK [BMH1 C-terminal 12 aa] are 0.712 ± 0.024 and 0.715 ± 0.026.
For QQQKVLAATLEK [HVG1 C-terminal 12 aa], in that order: 0.73 ± 0.0088 and 0.656 ± 0.012.
As to QRCCECASGNGC [YDR442W C-terminal 12 aa], the protein stability index amounted to 0.6843 ± 0.0013 under setting [1] and 0.668 ± 0.035 (genetic background: wild type).
On to “QRTLVYKHKNDC [YLR285C-A C-terminal 12 aa]”, for which the protein stability index reads like this: under setting [1], 0.686 ± 0.0091; (genetic background: wild type) 0.657 ± 0.0068.
For QRTQAICIDKKW [YJL135W C-terminal 12 aa], the protein stability index was determined as 0.697 ± 0.014 under setting [1] and 0.6986 ± 0.0032 (genetic background: wild type).
For the sequence QVRDILDKLNII [PRB1 C-terminal 12 aa], the protein stability index is 0.703 ± 0.015 under setting [1] and 0.6877 ± 0.0033 (genetic background: wild type).
As to “RACPLRPKSLIA [YMR315W-A C-terminal 12 aa]”, the protein stability index amounted to 0.655 ± 0.0078 under setting [1] and 0.667 ± 0.032 (genetic background: wild type).
Regarding RAEIVIEEAGEL [CPR3 C-terminal 12 aa], the protein stability index was 0.683 ± 0.011 under setting [1] and 0.6789 ± 0.0032 (genetic background: wild type).
RDLHVEHDNEFY [RPD3 C-terminal 12 aa]: the protein stability index is, setting by setting: under setting [1], 0.718 ± 0.019; (genetic background: wild type) 0.662 ± 0.074.
In the case of RDLNKLRSFQNF [YFL012W C-terminal 12 aa], the protein stability index by setting is: under setting [1], 0.724 ± 0.024; (genetic background: wild type) 0.4914 ± 0.0021.
On to RDREMVRELFRR [RSO55 C-terminal 12 aa], for which the protein stability index turned out to be 0.711 ± 0.017 under setting [1] and 0.692 ± 0.021 (genetic background: wild type).
For RFREEAYYSQFR [TCD2 C-terminal 12 aa], the protein stability index is 0.716 ± 0.013 under setting [1] and 0.672 ± 0.037 (genetic background: wild type).
For RHEGQRSKNSVK [GYP7 C-terminal 12 aa], the protein stability index runs as follows: under setting [1], 0.686 ± 0.015; (genetic background: wild type) 0.689 ± 0.019.
Turning to RIEKYSDDVIPK [RIM13 C-terminal 12 aa], the protein stability index under setting [1] was 0.695 ± 0.018 and the protein stability index (genetic background: wild type) was 0.722 ± 0.0089.
For RKEIRKQKRATF [MRPS28 C-terminal 12 aa], in that order: 0.709 ± 0.059 and 0.734 ± 0.028.
RKEKDPETYLDK [ERG8 C-terminal 12 aa]: the protein stability index came out at 0.691 ± 0.023 under setting [1] and 0.684 ± 0.01 (genetic background: wild type).
Take RKNGYDIMTLHE [CLB1 C-terminal 12 aa]: the protein stability index reads like this: under setting [1], 0.719 ± 0.045; (genetic background: wild type) 0.666 ± 0.027.
Take RLGLDWKPDGMS [STD1 C-terminal 12 aa]: the protein stability index amounted to 0.725 ± 0.029 under setting [1] and 0.6963 ± 0.0059 (genetic background: wild type).
RLIKHINDIFWK [GPI13 C-terminal 12 aa]: the protein stability index was 0.717 ± 0.077 under setting [1] and 0.723 ± 0.092 (genetic background: wild type).
With RLKDGSVTCIKS [HMG1 C-terminal 12 aa], the protein stability index is, setting by setting: under setting [1], 0.7299 ± 0.0059; (genetic background: wild type) 0.7 ± 0.021.
RNKKKRFSWVGY [LAA2 C-terminal 12 aa] came in with a protein stability index under setting [1] of 0.699 ± 0.066 and a protein stability index (genetic background: wild type) of 0.661 ± 0.044.
For the sequence RNYQKKGNKGCI [YCL076W C-terminal 12 aa], the protein stability index is, setting by setting: under setting [1], 0.687 ± 0.024; (genetic background: wild type) 0.679 ± 0.034.
“RPIFPFLIVLIS [YBR196C-A C-terminal 12 aa]”: the protein stability index was 0.16 ± 0.013 under setting [1] and 0.1088 ± 0.00092 (genetic background: wild type).
Turning to RPPRTRIPRLRR [YKR047W C-terminal 12 aa], the protein stability index under setting [1] was 0.7572 ± 0.0045 and the protein stability index (genetic background: wild type) stood at 0.708 ± 0.036.
Regarding RPSTNDPTSCCS [YPT52 C-terminal 12 aa], the protein stability index worked out at 0.697 ± 0.025 under setting [1] and 0.705 ± 0.03 (genetic background: wild type).
Sequence RQRQLKSPQNVL [TYW3 C-terminal 12 aa] came in with a protein stability index under setting [1] of 0.714 ± 0.017 and a protein stability index (genetic background: wild type) of 0.696 ± 0.046.
For RRLDDLETTMRM [SFH1 C-terminal 12 aa], in that order: 0.66 ± 0.015 and 0.662 ± 0.029.
“RRLKIQLCCISK [YHR180C-B C-terminal 12 aa]”: the protein stability index under setting [1] was 0.658 ± 0.019 and the protein stability index (genetic background: wild type) was determined as 0.6544 ± 0.004.
For the sequence RRQSPPGYYVIR [YLR311C C-terminal 12 aa], the protein stability index is, setting by setting: under setting [1], 0.747 ± 0.0064; (genetic background: wild type) 0.708 ± 0.027.
With RRSQLREHACVD [LDB7 C-terminal 12 aa], the protein stability index reads like this: under setting [1], 0.707 ± 0.013; (genetic background: wild type) 0.7096 ± 0.0049.
Consider RRTQAQSRSRKA [PKR1 C-terminal 12 aa], for which the protein stability index under setting [1] was 0.675 ± 0.0088 and the protein stability index (genetic background: wild type) was 0.706 ± 0.037.
With “RSIIKLPVTKGL [YBL008W-A C-terminal 12 aa]”, the protein stability index by setting is: under setting [1], 0.6946 ± 0.0058; (genetic background: wild type) 0.6596 ± 0.0024.
For RSPKGNSIIEEI [BTN2 C-terminal 12 aa], the protein stability index stood at 0.695 ± 0.026 under setting [1] and 0.655 ± 0.02 (genetic background: wild type).
For RSRNKALVSVST [VPS63 C-terminal 12 aa], the protein stability index runs as follows: under setting [1], 0.6496 ± 0.0045; (genetic background: wild type) 0.667 ± 0.049.
With RVPKKNGKLSKK [PDR5 C-terminal 12 aa], the protein stability index runs as follows: under setting [1], 0.7012 ± 0.0033; (genetic background: wild type) 0.704 ± 0.055.
Consider RYRNQIDDFDFS [IMP3 C-terminal 12 aa], for which the protein stability index came out at 0.71 ± 0.034 under setting [1] and 0.754 ± 0.097 (genetic background: wild type).
With SAAIGAQSGLYI [PBA1 C-terminal 12 aa], the protein stability index by setting is: under setting [1], 0.671 ± 0.021; (genetic background: wild type) 0.67 ± 0.0091.
Turning to SCQRILQELEKP [CAK1 C-terminal 12 aa], the protein stability index reads like this: under setting [1], 0.689 ± 0.0094; (genetic background: wild type) 0.705 ± 0.055.
SDILKYILLGSN [SNF4 C-terminal 12 aa]: the protein stability index turned out to be 0.683 ± 0.0085 under setting [1] and 0.6783 ± 0.0061 (genetic background: wild type).
Turning to SDVAKQLASFGY [RPL16B C-terminal 12 aa], the protein stability index under setting [1] turned out to be 0.7021 ± 0.0051 and the protein stability index (genetic background: wild type) was 0.6663 ± 0.00093.
In the same order, the values of SEEKSNLIEFEA [MDR1 C-terminal 12 aa] are 0.705 ± 0.013 and 0.6734 ± 0.0028.
On to SEFPTCCDQAAI [SLZ1 C-terminal 12 aa], for which the protein stability index worked out at 0.707 ± 0.01 under setting [1] and 0.721 ± 0.0094 (genetic background: wild type).
On to SGGFGGSGSGFI [FUB1 C-terminal 12 aa], for which the protein stability index by setting is: under setting [1], 0.6972 ± 0.0036; (genetic background: wild type) 0.691 ± 0.013.
Turning to “SGLIIAEAGIGG [YAL031W-A C-terminal 12 aa]”, the protein stability index is, setting by setting: under setting [1], 0.7001 ± 0.005; (genetic background: wild type) 0.7129 ± 0.0038.
The sequence SGVGAALCALVA [EMI2 C-terminal 12 aa] came in with a protein stability index under setting [1] of 0.583 ± 0.0075 and a protein stability index (genetic background: wild type) of 0.602 ± 0.025.
On to SGYSFNGSYGKS [WHI4 C-terminal 12 aa], for which the protein stability index by setting is: under setting [1], 0.671 ± 0.0029; (genetic background: wild type) 0.659 ± 0.022.
